Starred links: 1 amine or outer side, 2 acyl side, 3 side chain; linkers in the order of their positions; H or OH if unused. Positions of bridges follow the written chain, without caps; N, C: chain ends. Non-standard residues stand in square brackets, D forms with d. Primed or numbered codes have the meaning given here. B5(16) = 2-amino-2-(pent-4-en-1-yl)hept-6-enoic acid = 2,2-bis(4-pentenyl)glycine (stitching residue), C=CCCCC(CCCC=C)(N[*:1])C(=O)[*:2]; B5(4) = 2,2-bis(4-pentenyl)glycine = 2-amino-2-(pent-4-en-1-yl)hept-6-enoic acid (stitching residue), C=CCCCC(CCCC=C)(N[*:1])C(=O)[*:2]; B5(5) = 2,2-bis(4-pentenyl)glycine, 2-amino-2-(pent-4-en-1-yl)hept-6-enoic acid (stitching residue), C=CCCCC(CCCC=C)(N[*:1])C(=O)[*:2]; B5(21) = 2-amino-2-(pent-4-en-1-yl)hept-6-enoic acid, bis(4-pentenyl)glycine (stitching residue), C=CCCCC(CCCC=C)(N[*:1])C(=O)[*:2]; B5 = 2-amino-2-(pent-4-en-1-yl)hept-6-enoic acid, C=CCCCC(CCCC=C)(N[*:1])C(=O)[*:2]; (NHCyBu)AsnR = N4-cyclobutyl-L-asparagine, O=C(C[C@H](N[*:1])C(=O)[*:2])NC1CCC1; WCHO = 1-formyl-L-tryptophan, O=Cn1cc(C[C@H](N[*:1])C(=O)[*:2])c2ccccc21; (NHMe)AsnR = N4-methyl-L-asparagine, CNC(=O)C[C@H](N[*:1])C(=O)[*:2]; Phe(3,4,5-F3) = N[C@@H](Cc1cc(F)c(F)c(F)c1)C(=O)O; Ala(2-furyl) = N[C@@H](Cc1ccco1)C(=O)O; His(τ-Me) = Cn1cnc(C[C@H](N)C(=O)O)c1; Bta = N[C@@H](Cc1csc2ccccc12)C(=O)O; αAllylPro = C=CC[C@@]1(C(=O)O)CCCN1; S8 = C=CCCCCCC[C@](C)(N)C(=O)O
Key:
[1] = biological target: T1, full-length beta-Catenin (Uniprot ID P35222) (Homo sapiens (Human), UniProt P35222 1-781); assay: fluorescence polarization competition; displacement of 5FAM-TCF4(10-53) from full-length beta-catenin
T1 construct: also called bCat; B-Catenin
T1 sequence: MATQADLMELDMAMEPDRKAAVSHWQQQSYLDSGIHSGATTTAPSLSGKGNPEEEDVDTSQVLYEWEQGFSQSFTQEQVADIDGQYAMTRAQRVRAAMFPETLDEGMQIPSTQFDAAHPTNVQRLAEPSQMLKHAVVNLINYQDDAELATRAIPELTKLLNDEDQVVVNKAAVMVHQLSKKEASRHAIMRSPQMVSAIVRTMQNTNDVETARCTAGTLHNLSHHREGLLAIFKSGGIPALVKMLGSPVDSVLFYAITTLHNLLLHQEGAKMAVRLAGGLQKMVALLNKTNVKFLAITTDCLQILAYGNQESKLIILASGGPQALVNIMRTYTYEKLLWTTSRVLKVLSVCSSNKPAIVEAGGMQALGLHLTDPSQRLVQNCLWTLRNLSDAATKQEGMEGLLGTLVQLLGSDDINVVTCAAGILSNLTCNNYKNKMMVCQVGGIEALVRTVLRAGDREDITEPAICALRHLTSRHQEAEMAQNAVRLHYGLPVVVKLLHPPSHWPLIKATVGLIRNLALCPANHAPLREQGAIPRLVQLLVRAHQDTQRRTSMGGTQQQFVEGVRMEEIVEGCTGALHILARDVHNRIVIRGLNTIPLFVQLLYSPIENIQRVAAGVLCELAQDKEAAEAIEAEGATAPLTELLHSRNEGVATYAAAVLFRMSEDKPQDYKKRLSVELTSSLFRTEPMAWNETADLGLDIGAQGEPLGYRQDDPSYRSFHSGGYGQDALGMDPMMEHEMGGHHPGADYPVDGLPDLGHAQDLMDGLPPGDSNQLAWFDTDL
Procedure: (§1) The plate was incubated protected from light for 60 minutes at 20° C. prior to read. Reads were performed on a CLARIOstar plate reader (BMG Labtech) in duplicate, and data were fitted to a 1:1 binding model with hill slope using an in-house script. All provided concentrations are final concentrations.

[2] = biological target: T2, full-length beta-Catenin (Uniprot ID P35222) (Homo sapiens (Human), UniProt P35222 1-781); assay: fluorescence polarization competition; full-length beta-catenin + 5FAM-TCF4(10-53) probe as competitor; peptide titrated
T2 construct: Used full-length in the FP and AlphaScreen assays; also called B-Catenin; bCat
T2 sequence: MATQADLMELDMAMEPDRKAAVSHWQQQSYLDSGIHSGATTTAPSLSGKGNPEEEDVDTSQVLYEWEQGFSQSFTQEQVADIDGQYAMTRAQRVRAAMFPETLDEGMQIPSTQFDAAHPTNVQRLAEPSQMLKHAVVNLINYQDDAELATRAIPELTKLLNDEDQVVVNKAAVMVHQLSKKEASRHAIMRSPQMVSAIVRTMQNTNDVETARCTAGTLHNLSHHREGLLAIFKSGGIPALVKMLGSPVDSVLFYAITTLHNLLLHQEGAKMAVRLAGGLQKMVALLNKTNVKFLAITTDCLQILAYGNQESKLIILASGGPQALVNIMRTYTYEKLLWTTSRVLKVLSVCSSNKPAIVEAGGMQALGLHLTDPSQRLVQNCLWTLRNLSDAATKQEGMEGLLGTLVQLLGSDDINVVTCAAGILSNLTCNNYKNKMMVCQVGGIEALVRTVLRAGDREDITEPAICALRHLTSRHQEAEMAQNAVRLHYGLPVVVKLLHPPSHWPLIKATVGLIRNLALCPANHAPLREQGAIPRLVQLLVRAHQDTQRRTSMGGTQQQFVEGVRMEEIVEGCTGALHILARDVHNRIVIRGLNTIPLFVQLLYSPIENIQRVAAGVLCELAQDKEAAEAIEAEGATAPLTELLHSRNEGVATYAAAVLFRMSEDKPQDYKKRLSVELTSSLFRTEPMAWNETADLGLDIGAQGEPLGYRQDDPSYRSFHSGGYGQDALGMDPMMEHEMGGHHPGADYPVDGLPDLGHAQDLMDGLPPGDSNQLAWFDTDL
Procedure: as §1

[3] = biological target: T2, full-length beta-Catenin (Uniprot ID …); assay: AlphaScreen (nickel chelate) competition; full-length beta-catenin + biotin-TCF4(10-53) probe as competitor; peptide titrated
Procedure: Equal volume of the titrated peptide was added to the plate and incubated for 15 minutes at 20° C. Then 4 uL of donor and 4 uL acceptor beads at 10 ug/mL were added to the plate, for a 16 uL reaction pool and protected from light for 60 minutes at 20° C. prior to read. Reads were performed on a CLARIOstar plate reader (BMG Labtech) in duplicate, and data were fitted to a 1:1 binding model with hill slope using an in-house script. All provided concentrations are final concentrations.

[4] = biological target: T3, full-length beta-Catenin (Uniprot ID P35222) (Homo sapiens (Human), UniProt P35222 1-781); assay: fluorescence polarization competition vs 5FAM-TCF4(10-53) on full-length beta-catenin
T3 construct: also called bCat; B-Catenin
T3 sequence: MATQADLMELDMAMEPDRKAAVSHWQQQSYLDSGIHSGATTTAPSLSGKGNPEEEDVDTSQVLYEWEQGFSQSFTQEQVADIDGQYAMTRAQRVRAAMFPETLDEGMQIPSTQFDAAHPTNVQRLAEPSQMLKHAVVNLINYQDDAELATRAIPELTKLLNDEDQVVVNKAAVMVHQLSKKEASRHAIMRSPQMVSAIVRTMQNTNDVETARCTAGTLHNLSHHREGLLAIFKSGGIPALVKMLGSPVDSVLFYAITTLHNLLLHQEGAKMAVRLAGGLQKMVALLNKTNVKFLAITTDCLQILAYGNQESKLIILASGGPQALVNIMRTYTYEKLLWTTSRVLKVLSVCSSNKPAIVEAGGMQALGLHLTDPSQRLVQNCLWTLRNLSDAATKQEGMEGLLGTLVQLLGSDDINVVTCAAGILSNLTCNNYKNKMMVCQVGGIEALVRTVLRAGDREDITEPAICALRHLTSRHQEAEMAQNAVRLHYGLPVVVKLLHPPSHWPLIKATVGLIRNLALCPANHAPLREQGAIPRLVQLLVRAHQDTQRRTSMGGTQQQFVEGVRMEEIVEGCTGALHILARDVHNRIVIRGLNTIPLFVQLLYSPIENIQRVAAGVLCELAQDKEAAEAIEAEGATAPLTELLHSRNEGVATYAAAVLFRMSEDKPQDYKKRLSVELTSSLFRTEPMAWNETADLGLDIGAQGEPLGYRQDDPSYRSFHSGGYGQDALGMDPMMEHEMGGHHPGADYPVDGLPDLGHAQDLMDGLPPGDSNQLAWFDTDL
Procedure: as §1

B1: I-565 (peptide)
peptide: XDLXDDAAFNXFXH
modifications: not fully specified; Ac-PL3-Asp-Leu-B5-Asp-Asp-Ala-Ala-Phe-Asn-S8-Phe-BztA-His-NH2; N-terminal acetyl, C-terminal amide; non-natural: PL3(1), B5(4), S8(11), BztA(13); staples PL3(1)-B5(4) and B5(4)-S8(11)
EC50 [1]: 0.013 µM

Ac-[αAllylPro]DI[B5(5)]DEAAFV[S8]FWH-NH2 (staple 1-4, 4-11, Stapled peptide composition) [I-176]
EC50 [2]: 1.99 µM | EC50 [3]: 0.549 µM

B2: I-350 (peptide)
peptide: XDAXADAAFVXFWQ
modifications: not fully specified; N-terminal Ac; PL3 at 1; B5 at 4; S8 at 11; C-terminal NH2; stapled PL3-B5 and B5-S8 (olefin metathesis)
notes: Stapled peptide composition; also called Ac-PL3-Asp-Ala-B5-Ala-Asp-Ala-Ala-Phe-Val-S8-Phe-Trp-Gln-NH2
IC50 [4]: 5 µM

B3: I-338 (peptide)
peptide: XDAXDDAAFVXFXQ
modifications: not fully specified; N-terminal Ac; PL3 at 1; B5 at 4; S8 at 11; 4CBMF at 12; BztA at 13; C-terminal NH2; stapled PL3-B5 and B5-S8 (olefin metathesis)
notes: Stapled peptide composition; also called Ac-PL3-Asp-Ala-B5-Asp-Asp-Ala-Ala-Phe-Val-S8-4CBMF-BztA-Gln-NH2
IC50 [4]: 5 µM

B4: I-329 (peptide)
peptide: Ac-[αAllylPro]DA[B5(4)]DDAA[His(τ-Me)]V[S8]FWQ-NH2
modifications: staple 1-4, 4-11; not fully specified; printed as Ac-PL3-Asp-Ala-B5-Asp-Asp-Ala-Ala-1meH-Val-S8-Phe-Trp-Gln-NH2
notes: Stapled peptide composition; also called Ac-PL3-Asp-Ala-B5-Asp-Asp-Ala-Ala-1meH-Val-S8-Phe-Trp-Gln-NH2
IC50 [4]: 5 µM

B5: I-353 (peptide)
peptide: XDAXDDAAAVXFWQ
modifications: not fully specified; N-terminal Ac; PL3 at 1; B5 at 4; S8 at 11; C-terminal NH2; stapled PL3-B5 and B5-S8 (olefin metathesis)
notes: Stapled peptide composition; also called Ac-PL3-Asp-Ala-B5-Asp-Asp-Ala-Ala-Ala-Val-S8-Phe-Trp-Gln-NH2
IC50 [4]: 5 µM

B6: I-337 (peptide)
peptide: XDAXDDAAFVXFXQ
modifications: not fully specified; N-terminal Ac; PL3 at 1; B5 at 4; S8 at 11; 4CBMF at 12; BztA at 13; C-terminal NH2; stapled PL3-B5 and B5-S8 (olefin metathesis)
notes: as for B3
IC50 [4]: 5 µM

B7: I-563 (peptide)
peptide: XDLXDDAAFNXFXQ
modifications: not fully specified; Ac-PL3-Asp-Leu-B5-Asp-Asp-Ala-Ala-Phe-Asn-S8-Phe-BztA-Gln-NH2; N-terminal acetyl, C-terminal amide; non-natural: PL3(1), B5(4), S8(11), BztA(13); staples PL3(1)-B5(4) and B5(4)-S8(11)
EC50 [1]: 0.019 µM

B8: I-352 (peptide)
peptide: Ac-[αAllylPro]DA[B5(16)]DAAAFV[S8]FWQ-NH2
modifications: staple 1-4, 4-11
notes: Stapled peptide composition; also called Ac-PL3-Asp-Ala-B5-Asp-Ala-Ala-Ala-Phe-Val-S8-Phe-Trp-Gln-NH2
IC50 [4]: 5 µM

B9: I-327 (peptide)
peptide: Ac-[αAllylPro]DA[B5(4)]DDAA[Ala(2-furyl)]V[S8]FWQ-NH2
modifications: staple 1-4, 4-11; not fully specified; printed as Ac-PL3-Asp-Ala-B5-Asp-Asp-Ala-Ala-2FurA-Val-S8-Phe-Trp-Gln-NH2
notes: Stapled peptide composition; also called Ac-PL3-Asp-Ala-B5-Asp-Asp-Ala-Ala-2FurA-Val-S8-Phe-Trp-Gln-NH2
IC50 [4]: 4.72 µM

B10: I-333 (peptide)
peptide: Ac-[αAllylPro]DA[B5(4)]DDAAFS[S8]F[WCHO]S-NH2
modifications: staple 1-4, 4-11
notes: Stapled peptide composition; also called Ac-PL3-Asp-Ala-B5-Asp-Asp-Ala-Ala-Phe-Ser-S8-Phe-WCHO-Ser-NH2
IC50 [4]: 2.76 µM

Ac-[αAllylPro]DA[B5(21)][(NHCyBu)AsnR]DAAFV[S8]F[Bta]Q-NH2 (staple 1-4, 4-11, Stapled (stitched) peptide composition) [I-539]
EC50 [1]: 5 µM

Ac-[αAllylPro]DA[B5(21)][(NHMe)AsnR]DAAFV[S8]F[Bta]Q-NH2 (staple 1-4, 4-11, Stapled (stitched) peptide composition) [I-540]
EC50 [1]: 5 µM

B11: I-330 (peptide)
peptide: Ac-[αAllylPro]DA[B5(4)]DDAA[His(τ-Me)]V[S8]FWQ-NH2
modifications: staple 1-4, 4-11
notes: as for B4
IC50 [4]: 5 µM

B12: I-199 (peptide)
peptide: Ac-[αAllylPro]NA[B5]DEAAFV[S8]FWQ-NH2
modifications: staple 1-4, 4-11
notes: Stapled peptide composition; this is the earlier-eluting isomer composition
EC50 [2]: 5 µM

B13: I-200 (peptide)
peptide: Ac-[αAllylPro]NA[B5(4)]DEAAFV[S8]FWQ-NH2
modifications: staple 1-4, 4-11
notes: Stapled peptide composition; this is the later-eluting isomer composition
EC50 [2]: 5 µM

B14: I-328 (peptide)
peptide: Ac-[αAllylPro]DA[B5(4)]DDAA[Ala(2-furyl)]V[S8]FWQ-NH2
modifications: staple 1-4, 4-11; not fully specified; printed as Ac-PL3-Asp-Ala-B5-Asp-Asp-Ala-Ala-2FurA-Val-S8-Phe-Trp-Gln-NH2
notes: as for B9
IC50 [4]: 1.91 µM

Ac-[αAllylPro]DA[B5(4)]DEAA[Phe(3,4,5-F3)]V[S8]FWQ-NH2 (staple 1-4, 4-11, Stapled peptide composition) [I-212]
EC50 [2]: 5 µM

Reference: US20240116985A1 (published 2024)
